Test results from patent US20230029453A1.

What follows are binders tested against HLA-A*24:02 (human) (assay: UV peptide exchange; HLA class I ELISA). Conditions: remark: other sources report otherwise.

Row | Binder | exchange rate with Pos [%] | Average % [%] | Exch I (%) | Exch II (%)
1 | LLERNSFEV (here or on the partner: biotinylated heavy chain) [P73 9-mer … (TP53 G266E)] | 0.5 | – | – | –
2 | CYLGRQKRF (here or on the partner: biotinylated heavy chain) [P61 9-mer … (FOXA1.p.R261G)] | 90.3 | – | – | –
3 | YCMAAPMGL (here or on the partner: biotinylated heavy chain) [P76 9-mer … (AR-V3)] | -0.5 | – | – | –
4 | RVGNCKHLK (here or on the partner: biotinylated heavy chain) [P82 9-mer … (AR-V7)] | -0.1 | – | – | –
5 | HVPKILSGK (here or on the partner: biotinylated heavy chain) [P58 9-mer … (AR Q903H)] | 0.2 | – | – | –
6 | RAVRRMNTF (here or on the partner: biotinylated heavy chain) [P17 9-mer … (MSMB-NOCA4 fusion)] | 0.1 | – | – | –
7 | LMAQRLLLR (here or on the partner: biotinylated heavy chain) [P97 9-mer … (FOXRED2-TXN2 fusion)] | 0.1 | – | – | –
8 | FLFLLLPLS (here or on the partner: biotinylated heavy chain) [P87 9-mer … (AR-Intron)] | 0.2 | – | – | –
9 | YLRRQKRLK (here or on the partner: biotinylated heavy chain) [P60 9-mer … (FOXA1.p.F266L)] | 0.9 | – | – | –
10 | QLIAMDSAI (here or on the partner: biotinylated heavy chain) [P22 9-mer … (SLC45A3-ELK4 fusion)] | 0 | 4.5 | 4.8 | 4.1
11 | RAKCKFSIL (here or on the partner: biotinylated heavy chain) [P56 9-mer … (SPOP F102C)] | 0.5 | – | – | –
12 | YQFTFDLLI (here or on the partner: biotinylated heavy chain) [P48 9-mer … (AR.p.H875Y)] | 0.1 | – | – | –
13 | IPVLTRWPL (here or on the partner: biotinylated heavy chain) [P19 9-mer … (TMEM222-LOC644061 fusion)] | 0.1 | – | – | –
14 | CPMSRLRLA (here or on the partner: biotinylated heavy chain) [P46 9-mer … (TP53 R213D frameshift)] | -0.4 | – | – | –
15 | IVWWCPMSR (here or on the partner: biotinylated heavy chain) [P98 9-mer … (TP53 R213D frameshift)] | -0.1 | – | – | –

The binders below were run against HLA-B*07:02 (human) (assay: UV peptide exchange; HLA class I ELISA). Conditions: remark: other sources report otherwise.

Row | Binder | exchange rate with Pos [%] | Average % [%] | Exch I (%) | Exch II (%)
16 | LLERNSFEV (here or on the partner: biotinylated heavy chain) [P73 9-mer … (TP53 G266E)] | 8.7 | – | – | –
17 | YCMAAPMGL (here or on the partner: biotinylated heavy chain) [P76 9-mer … (AR-V3)] | 91.5 | – | – | –
18 | RVGNCKHLK (here or on the partner: biotinylated heavy chain) [P82 9-mer … (AR-V7)] | 12.9 | – | – | –
19 | LIYRRRLMK (modifications not checked) | – | 13.7 | 13 | 14.3
20 | RAVRRMNTF (here or on the partner: biotinylated heavy chain) [P17 9-mer … (MSMB-NOCA4 fusion)] | 38.7 | – | – | –
21 | LMAQRLLLR (here or on the partner: biotinylated heavy chain) [P97 9-mer … (FOXRED2-TXN2 fusion)] | 7 | – | – | –
22 | FLFLLLPLS (here or on the partner: biotinylated heavy chain) [P87 9-mer … (AR-Intron)] | 5 | – | – | –
23 | YLRRQKRLK (here or on the partner: biotinylated heavy chain) [P60 9-mer … (FOXA1.p.F266L)] | 6.1 | – | – | –
24 | QLIAMDSAI (here or on the partner: biotinylated heavy chain) [P22 9-mer … (SLC45A3-ELK4 fusion)] | 8.3 | 12 | 12.2 | 11.8
25 | RAKCKFSIL (here or on the partner: biotinylated heavy chain) [P56 9-mer … (SPOP F102C)] | 82.5 | – | – | –
26 | YQFTFDLLI (here or on the partner: biotinylated heavy chain) [P48 9-mer … (AR.p.H875Y)] | 12.8 | – | – | –
27 | IPVLTRWPL (here or on the partner: biotinylated heavy chain) [P19 9-mer … (TMEM222-LOC644061 fusion)] | 91.3 | – | – | –
28 | CPMSRLRLA (here or on the partner: biotinylated heavy chain) [P46 9-mer … (TP53 R213D frameshift)] | 64.8 | – | – | –
29 | IVWWCPMSR (here or on the partner: biotinylated heavy chain) [P98 9-mer … (TP53 R213D frameshift)] | 6.7 | – | – | –

What follows are binders tested against HLA-A*01:01 (human) (assay: UV peptide exchange; HLA class I ELISA). Conditions: remark: other sources report otherwise.

Row | Binder | exchange rate with Pos [%] | Average % [%] | Exch I (%) | Exch II (%)
30 | CYLGRQKRF (here or on the partner: biotinylated heavy chain) [P61 9-mer … (FOXA1.p.R261G)] | 1.7 | – | – | –
31 | YCMAAPMGL (here or on the partner: biotinylated heavy chain) [P76 9-mer … (AR-V3)] | 0.1 | – | – | –
32 | RVGNCKHLK (here or on the partner: biotinylated heavy chain) [P82 9-mer … (AR-V7)] | 1.5 | – | – | –
33 | HVPKILSGK (here or on the partner: biotinylated heavy chain) [P58 9-mer … (AR Q903H)] | 2.5 | – | – | –
34 | RAVRRMNTF (here or on the partner: biotinylated heavy chain) [P17 9-mer … (MSMB-NOCA4 fusion)] | 4.9 | – | – | –
35 | LMAQRLLLR (here or on the partner: biotinylated heavy chain) [P97 9-mer … (FOXRED2-TXN2 fusion)] | 2.5 | – | – | –
36 | FLFLLLPLS (here or on the partner: biotinylated heavy chain) [P87 9-mer … (AR-Intron)] | 1.1 | – | – | –
37 | NPKASLLSL (modifications not checked) | – | 6.5 | 7.4 | 5.6
38 | YLRRQKRLK (here or on the partner: biotinylated heavy chain) [P60 9-mer … (FOXA1.p.F266L)] | 3.1 | – | – | –
39 | QLIAMDSAI (here or on the partner: biotinylated heavy chain) [P22 9-mer … (SLC45A3-ELK4 fusion)] | 4.4 | 5 | 5 | 4.9
40 | RAKCKFSIL (here or on the partner: biotinylated heavy chain) [P56 9-mer … (SPOP F102C)] | 2.6 | – | – | –
41 | YQFTFDLLI (here or on the partner: biotinylated heavy chain) [P48 9-mer … (AR.p.H875Y)] | 4.3 | – | – | –
42 | IPVLTRWPL (here or on the partner: biotinylated heavy chain) [P19 9-mer … (TMEM222-LOC644061 fusion)] | 5.2 | – | – | –
43 | CPMSRLRLA (here or on the partner: biotinylated heavy chain) [P46 9-mer … (TP53 R213D frameshift)] | 2.4 | – | – | –
44 | IVWWCPMSR (here or on the partner: biotinylated heavy chain) [P98 9-mer … (TP53 R213D frameshift)] | 2.5 | – | – | –

The binders below were run against HLA-A*03:01 (human) (assay: UV peptide exchange; HLA class I ELISA). Conditions: remark: other sources report otherwise.

Row | Binder | exchange rate with Pos [%]
45 | LLERNSFEV (here or on the partner: biotinylated heavy chain) [P73 9-mer … (TP53 G266E)] | 3.5
46 | YCMAAPMGL (here or on the partner: biotinylated heavy chain) [P76 9-mer … (AR-V3)] | 6
47 | RVGNCKHLK (here or on the partner: biotinylated heavy chain) [P82 9-mer … (AR-V7)] | 58.1
48 | HVPKILSGK (here or on the partner: biotinylated heavy chain) [P58 9-mer … (AR Q903H)] | 32.5
49 | RAVRRMNTF (here or on the partner: biotinylated heavy chain) [P17 9-mer … (MSMB-NOCA4 fusion)] | 3.8
50 | LMAQRLLLR (here or on the partner: biotinylated heavy chain) [P97 9-mer … (FOXRED2-TXN2 fusion)] | 39
51 | FLFLLLPLS (here or on the partner: biotinylated heavy chain) [P87 9-mer … (AR-Intron)] | 2.4
52 | YLRRQKRLK (here or on the partner: biotinylated heavy chain) [P60 9-mer … (FOXA1.p.F266L)] | 36.6
53 | QLIAMDSAI (here or on the partner: biotinylated heavy chain) [P22 9-mer … (SLC45A3-ELK4 fusion)] | 4.8
54 | RAKCKFSIL (here or on the partner: biotinylated heavy chain) [P56 9-mer … (SPOP F102C)] | 6.8
55 | YQFTFDLLI (here or on the partner: biotinylated heavy chain) [P48 9-mer … (AR.p.H875Y)] | 4.4
56 | IPVLTRWPL (here or on the partner: biotinylated heavy chain) [P19 9-mer … (TMEM222-LOC644061 fusion)] | 4.1
57 | CPMSRLRLA (here or on the partner: biotinylated heavy chain) [P46 9-mer … (TP53 R213D frameshift)] | 10.3
58 | IVWWCPMSR (here or on the partner: biotinylated heavy chain) [P98 9-mer … (TP53 R213D frameshift)] | 51.1

What follows are binders tested against HLA-B*27:05 (human) (assay: UV peptide exchange; HLA class I ELISA). Conditions: remark: other sources report otherwise.

Row | Binder | Average % [%] | Exch I (%) | Exch II (%)
59 | QLIAMDSAI (here or on the partner: biotinylated heavy chain) [P22 9-mer … (SLC45A3-ELK4 fusion)] | 4.3 | 4.7 | 3.9

These binders were tested against HLA-B*08:01 (human) (assay: UV peptide exchange; HLA class I ELISA). Conditions: remark: other sources report otherwise.

Row | Binder | exchange rate with Pos [%] | Average % [%] | Exch I (%) | Exch II (%)
60 | LLERNSFEV (here or on the partner: biotinylated heavy chain) [P73 9-mer … (TP53 G266E)] | 2.6 | – | – | –
61 | CYLGRQKRF (here or on the partner: biotinylated heavy chain) [P61 9-mer … (FOXA1.p.R261G)] | 3.6 | – | – | –
62 | RVGNCKHLK (here or on the partner: biotinylated heavy chain) [P82 9-mer … (AR-V7)] | 1.4 | – | – | –
63 | HVPKILSGK (here or on the partner: biotinylated heavy chain) [P58 9-mer … (AR Q903H)] | 5.3 | – | – | –
64 | RAVRRMNTF (here or on the partner: biotinylated heavy chain) [P17 9-mer … (MSMB-NOCA4 fusion)] | 9 | – | – | –
65 | LMAQRLLLR (here or on the partner: biotinylated heavy chain) [P97 9-mer … (FOXRED2-TXN2 fusion)] | 2.7 | – | – | –
66 | FLFLLLPLS (here or on the partner: biotinylated heavy chain) [P87 9-mer … (AR-Intron)] | 3.1 | – | – | –
67 | YLRRQKRLK (here or on the partner: biotinylated heavy chain) [P60 9-mer … (FOXA1.p.F266L)] | 10.2 | – | – | –
68 | QLIAMDSAI (here or on the partner: biotinylated heavy chain) [P22 9-mer … (SLC45A3-ELK4 fusion)] | 3.9 | 7.9 | 8 | 7.8
69 | RAKCKFSIL (here or on the partner: biotinylated heavy chain) [P56 9-mer … (SPOP F102C)] | 38 | – | – | –
70 | IPVLTRWPL (here or on the partner: biotinylated heavy chain) [P19 9-mer … (TMEM222-LOC644061 fusion)] | 14.5 | – | – | –
71 | CPMSRLRLA (here or on the partner: biotinylated heavy chain) [P46 9-mer … (TP53 R213D frameshift)] | 14.5 | – | – | –
72 | IVWWCPMSR (here or on the partner: biotinylated heavy chain) [P98 9-mer … (TP53 R213D frameshift)] | 2.4 | – | – | –

The binders below were run against HLA-A*02:01 (human) (assay: UV peptide exchange; HLA class I ELISA). Conditions: remark: other sources report otherwise.

Row | Binder | exchange rate with Pos [%] | Average % [%] | Exch I (%) | Exch II (%)
73 | LLERNSFEV (here or on the partner: biotinylated heavy chain) [P73 9-mer … (TP53 G266E)] | 89.2 | – | – | –
74 | CYLGRQKRF (here or on the partner: biotinylated heavy chain) [P61 9-mer … (FOXA1.p.R261G)] | 5.8 | – | – | –
75 | YCMAAPMGL (here or on the partner: biotinylated heavy chain) [P76 9-mer … (AR-V3)] | 85.9 | – | – | –
76 | RVGNCKHLK (here or on the partner: biotinylated heavy chain) [P82 9-mer … (AR-V7)] | 6.3 | – | – | –
77 | HVPKILSGK (here or on the partner: biotinylated heavy chain) [P58 9-mer … (AR Q903H)] | 11.8 | – | – | –
78 | LMAQRLLLR (here or on the partner: biotinylated heavy chain) [P97 9-mer … (FOXRED2-TXN2 fusion)] | 4.6 | – | – | –
79 | FLFLLLPLS (here or on the partner: biotinylated heavy chain) [P87 9-mer … (AR-Intron)] | 64 | – | – | –
80 | YLRRQKRLK (here or on the partner: biotinylated heavy chain) [P60 9-mer … (FOXA1.p.F266L)] | 7.9 | – | – | –
81 | QLIAMDSAI (here or on the partner: biotinylated heavy chain) [P22 9-mer … (SLC45A3-ELK4 fusion)] | 46.9 | 41.5 | 40 | 43.1
82 | RAKCKFSIL (here or on the partner: biotinylated heavy chain) [P56 9-mer … (SPOP F102C)] | 8.4 | – | – | –
83 | YQFTFDLLI (here or on the partner: biotinylated heavy chain) [P48 9-mer … (AR.p.H875Y)] | 99.3 | – | – | –
84 | IPVLTRWPL (here or on the partner: biotinylated heavy chain) [P19 9-mer … (TMEM222-LOC644061 fusion)] | 8.2 | – | – | –
85 | CPMSRLRLA (here or on the partner: biotinylated heavy chain) [P46 9-mer … (TP53 R213D frameshift)] | 14.4 | – | – | –
86 | IVWWCPMSR (here or on the partner: biotinylated heavy chain) [P98 9-mer … (TP53 R213D frameshift)] | 7.9 | – | – | –
